Experimental data taken from patent US20080014635A1.

Legend:
[1] = target: mutant clone 6 (TNFrED H23P + S46I)-agglutinin fusion displayed on yeast (human); assay: saturation binding of [125I]TNF-α to yeast displaying mutant clone 6, best-fit values box; axis 'Bound' has no unit [B]
[2] = target: wild-type TNFrED-agglutinin fusion displayed on the surface of S. cerevisiae BJ2168 (human); assay: flow cytometry of yeast, biotinylated hTNF-α detected with FITC-avidin (FL1-H); vector-only pYES2 yeast in the left panel: Left Half= 98.58% [B]
wild-type TNFrED-agglutinin fusion displayed on the surface of S. cerevisiae BJ2168 (human), sequence (P20840 other isoform, or with tags, fused parts or gaps, form in doubt): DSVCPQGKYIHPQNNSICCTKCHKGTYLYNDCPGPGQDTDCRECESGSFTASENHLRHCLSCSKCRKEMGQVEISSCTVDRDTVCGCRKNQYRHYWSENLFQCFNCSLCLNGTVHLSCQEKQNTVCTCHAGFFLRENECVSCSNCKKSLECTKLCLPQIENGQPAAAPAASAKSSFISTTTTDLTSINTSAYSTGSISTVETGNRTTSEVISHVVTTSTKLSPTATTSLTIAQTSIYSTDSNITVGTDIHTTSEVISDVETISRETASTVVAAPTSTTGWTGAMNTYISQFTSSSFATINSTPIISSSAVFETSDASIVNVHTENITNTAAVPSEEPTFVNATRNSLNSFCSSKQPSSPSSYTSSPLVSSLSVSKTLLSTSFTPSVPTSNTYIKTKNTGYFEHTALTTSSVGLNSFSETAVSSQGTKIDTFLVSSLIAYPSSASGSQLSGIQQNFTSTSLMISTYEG

[3] = target: wild-type TNFrED-agglutinin fusion displayed on the surface of S. cerevisiae BJ2168 (human); assay: flow cytometry of yeast, biotinylated hTNF-α detected with FITC-avidin (FL1-H); gate line at FL1-H just below 10^1; vector-only pYES2 yeast in the left panel: Right Half= 1.42% [B]
[4] = target: mutant clone 11 (TNFrED S76P)-agglutinin fusion displayed on yeast (human); assay: saturation binding of [125I]TNF-α to yeast displaying mutant clone 11, best-fit values box; axis 'Bound' has no unit [C]
mutant clone 11 (TNFrED S76P)-agglutinin fusion displayed on yeast (human), sequence (P20840 other isoform, or with tags, fused parts or gaps S76P S76P, form in doubt): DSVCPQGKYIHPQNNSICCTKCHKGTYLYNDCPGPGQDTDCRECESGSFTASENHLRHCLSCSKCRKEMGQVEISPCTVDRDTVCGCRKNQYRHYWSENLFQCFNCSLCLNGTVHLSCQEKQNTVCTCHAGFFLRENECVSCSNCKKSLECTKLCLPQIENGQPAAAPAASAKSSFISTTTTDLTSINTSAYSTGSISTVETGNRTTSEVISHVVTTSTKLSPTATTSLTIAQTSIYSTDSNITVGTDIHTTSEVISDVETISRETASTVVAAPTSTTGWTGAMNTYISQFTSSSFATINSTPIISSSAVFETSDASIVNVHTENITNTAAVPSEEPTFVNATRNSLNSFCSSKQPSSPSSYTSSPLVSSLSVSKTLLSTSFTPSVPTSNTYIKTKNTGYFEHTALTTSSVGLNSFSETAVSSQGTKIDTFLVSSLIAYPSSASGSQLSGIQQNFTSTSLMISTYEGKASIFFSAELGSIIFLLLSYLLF

[5] = target: wild-type TNFrED-agglutinin fusion displayed on the surface of S. cerevisiae BJ2168 (human); assay: saturation binding of [125I]TNF-α to yeast displaying wild-type TNFrED, best-fit values box; the box prints no unit, the concentration axis is TNF-α [nM] [A]
[6] = target: mutant clone 6 (TNFrED H23P + S46I)-agglutinin fusion displayed on yeast (human); assay: saturation binding of [125I]TNF-α to yeast displaying mutant clone 6, best-fit values box; the box prints no unit, the concentration axis is TNF-α [nM] [B]
[7] = target: wild-type TNFrED-agglutinin fusion displayed on the surface of S. cerevisiae BJ2168 (human); assay: saturation binding of [125I]TNF-α to yeast displaying wild-type TNFrED, best-fit values box; axis 'Bound' has no unit [A]

mutant clone 6 (TNFrED H23P + S46I)-agglutinin fusion displayed on yeast (human), sequence (P20840 other isoform, or with tags, fused parts or gaps H23P S46I H23P S46I, form in doubt): as the sequence (P20840 other isoform, or with tags, fused parts or gaps S76P S76P, form in doubt) above, with H23P, S46I, P76S counted along it

BMAX [1]: 0.334
Left Half (percent of yeast cells left of the FL1-H gate) [2]: 89.1%
Right Half (percent of yeast cells right of the FL1-H gate) [3]: 10.9%
BMAX [4]: 0.127
Kd [5]: 2.04 nM
Kd [6]: 1.71 nM
BMAX [7]: 0.0645
Substance: human TNF-α (hTNF-α) (from UniProt P01375 77-233) (ligand)
